From publication PMC2582609

How the values were obtained:
[1] = target: NIPBL R1895T (CdLS missense mutation) GAL4-DNA-binding domain fusion (human) (UniProt Q6KC79); assay: two-hybrid
[2] = target: NIPBL R1856G (CdLS missense mutation) GAL4-DNA-binding domain fusion (human) (UniProt Q6KC79); assay: two-hybrid

## full-length HDAC3 fused to the GAL4-activating domain (from UniProt O15379 1-428) (enzyme)
[1]
  β-galactosidase activity compared to the wild-type construct: 50%
[2]
  β-galactosidase activity compared to the wild-type construct: 50%
